Laboratory results from patent US9708375 (Amgen, dated 2017).

T1: biotin labeled human recombinant Sclerostin (human, UniProt Q9BQB4 24-213)
T1 construct: also called human Sclerostin; huSOST
T1 sequence (looked up): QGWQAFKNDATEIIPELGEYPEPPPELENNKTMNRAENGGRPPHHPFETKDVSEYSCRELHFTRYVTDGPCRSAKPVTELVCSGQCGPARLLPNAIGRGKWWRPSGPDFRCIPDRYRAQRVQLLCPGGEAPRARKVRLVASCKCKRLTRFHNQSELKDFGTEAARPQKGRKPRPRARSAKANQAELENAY

B1: P7080 (bispecific antibody, human IgG2, lambda)
light: YVLTQPPSVSVAPGQTARITCGGNNIGSKSVHWYQQKPGQAPVLVVYDDSDRPSEIPERFSGSNSGNTATLTISRVEAGDEADYYCQVWDSSSDHVVFGGGTRLTVLGQPKAAPSVTLFPPSSEELQANKATLVCLISDFYPGAVTVAWKADSSPVKAGVETTTPSKQSNNKYAASSYLSLTPEQWKSHRSYSCQVTHEGSTVEKTVAPTECSSSGGSCPAYTEFLCKDSDRCFPSEWRCDGEMDCVDGSDELHCAYHTCAPNQFRCNSYDKCVPAHWVCDGVLDCLDSSDETNCSAPASEPPGSLSLQ
heavy: QVQLVESGGGVVQPGRSLRLSCAASGFTFSRYDMHWVRQAPGKGLEWVAIIFYDGSNKYYADPVKGRFTISRDNSKNTLYLQMNSLRAEDTAVYYCATLAAAFDYWGQGTLVTVSSASTKGPSVFPLAPCSRSTSESTAALGCLVKDYFPEPVTVSWNSGALTSGVHTFPAVLQSSGLYSLSSVVTVPSSNFGTQTYTCNVDHKPSNTKVDKTVERKCCVECPPCPAPPVAGPSVFLFPPKPKDTLMISRTPEVTCVVVDVSHEDPEVQFNWYVDGVEVHNAKTKPREEQFNSTFRVVSVLTVVHQDWLNGKEYKCKVSNKGLPAPIEKTISKTKGQPREPQVYTLPPSREEMTKNQVSLTCLVKGFYPSDIAVEWESNGQPENNYKTTPPMLDSDGSFFLYSKLTVDKSRWQQGNVFSCSVMHEALHNHYTQKSLSLSPGK
notes: also called P7009; Ab-Avimer-7 (P7080A)
B2: P7652 (bispecific antibody, human IgG2, lambda)
light: YVLTQPPSVSVAPGQTARITCGGNNIGSKSVHWYQQKPGQAPVLVVYDDSDRPSEIPERFSGSNSGNTATLTISRVEAGDEADYYCQVWDSSSDHVVFGGGTRLTVLGQPKAAPSVTLFPPSSEELQANKATLVCLISDFYPGAVTVAWKADSSPVKAGVETTTPSKQSNNKYAASSYLSLTPEQWKSHRSYSCQVTHEGSTVEKTVAPTECSSSGGSCPAYTEFLCADSDRCFPSEWRCDGEMDCVDGSDELHCAYHTCAPNQFRCNSYDKCVPAHWVCDGVLDCLDSSDETNCSAPASEPPGSLSLQ
heavy: QVQLVESGGGVVQPGRSLRLSCAASGFTFSRYDMHWVRQAPGKGLEWVAIIFYDGSNKYYADPVKGRFTISRDNSKNTLYLQMNSLRAEDTAVYYCATLAAAFDYWGQGTLVTVSSASTKGPSVFPLAPCSRSTSESTAALGCLVKDYFPEPVTVSWNSGALTSGVHTFPAVLQSSGLYSLSSVVTVPSSNFGTQTYTCNVDHKPSNTKVDKTVERKCCVECPPCPAPPVAGPSVFLFPPKPKDTLMISRTPEVTCVVVDVSHEDPEVQFNWYVDGVEVHNAKTKPREEQFNSTFRVVSVLTVVHQDWLNGKEYKCKVSNKGLPAPIEKTISKTKGQPREPQVYTLPPSREEMTKNQVSLTCLVKGFYPSDIAVEWESNGQPENNYKTTPPMLDSDGSFFLYSKLTVDKSRWQQGNVFSCSVMHEALHNHYTQKSLSLSPGK
notes: also called C140162
B3: P7068 (bispecific antibody, human IgG2, lambda)
heavy: SGGSCPAYTEFLCKDSDRCFPSEWRCDGEMDCVDGSDELHCAYHTCAPNQFRCNSYDKCVPAHWVCDGVLDCLDSSDETNCSAPASEPPGSLSQVQLVESGGGVVQPGRSLRLSCAASGFTFSRYDMHWVRQAPGKGLEWVAIIFYDGSNKYYADPVKGRFTISRDNSKNTLYLQMNSLRAEDTAVYYCATLAAAFDYWGQGTLVTVSSASTKGPSVFPLAPCSRSTSESTAALGCLVKDYFPEPVTVSWNSGALTSGVHTFPAVLQSSGLYSLSSVVTVPSSNFGTQTYTCNVDHKPSNTKVDKTVERKCCVECPPCPAPPVAGPSVFLFPPKPKDTLMISRTPEVTCVVVDVSHEDPEVQFNWYVDGVEVHNAKTKPREEQFNSTFRVVSVLTVVHQDWLNGKEYKCKVSNKGLPAPIEKTISKTKGQPREPQVYTLPPSREEMTKNQVSLTCLVKGFYPSDIAVEWESNGQPENNYKTTPPMLDSDGSFFLYSKLTVDKSRWQQGNVFSCSVMHEALHNHYTQKSLSLSPGK
light: YVLTQPPSVSVAPGQTARITCGGNNIGSKSVHWYQQKPGQAPVLVVYDDSDRPSEIPERFSGSNSGNTATLTISRVEAGDEADYYCQVWDSSSDHVVFGGGTRLTVLGQPKAAPSVTLFPPSSEELQANKATLVCLISDFYPGAVTVAWKADSSPVKAGVETTTPSKQSNNKYAASSYLSLTPEQWKSHRSYSCQVTHEGSTVEKTVAPTECS
notes: also called P7011; Ab-Avimer-1 (P7068A)
B4: P7079 (bispecific antibody, human IgG2, lambda)
heavy: QVQLVESGGGVVQPGRSLRLSCAASGFTFSRYDMHWVRQAPGKGLEWVAIIFYDGSNKYYADPVKGRFTISRDNSKNTLYLQMNSLRAEDTAVYYCATLAAAFDYWGQGTLVTVSSASTKGPSVFPLAPCSRSTSESTAALGCLVKDYFPEPVTVSWNSGALTSGVHTFPAVLQSSGLYSLSSVVTVPSSNFGTQTYTCNVDHKPSNTKVDKTVERKCCVECPPCPAPPVAGPSVFLFPPKPKDTLMISRTPEVTCVVVDVSHEDPEVQFNWYVDGVEVHNAKTKPREEQFNSTFRVVSVLTVVHQDWLNGKEYKCKVSNKGLPAPIEKTISKTKGQPREPQVYTLPPSREEMTKNQVSLTCLVKGFYPSDIAVEWESNGQPENNYKTTPPMLDSDGSFFLYSKLTVDKSRWQQGNVFSCSVMHEALHNHYTQKSLSLSPGKSSGGSCAPNQFRCNSYDKCVPAHWVCDGVLDCLDSSDETNCSAPASEPPGSLCPAYTEFLCKDSDRCFPSEWRCDGEMDCVDGSDELHCAYHTSLQ
light: YVLTQPPSVSVAPGQTARITCGGNNIGSKSVHWYQQKPGQAPVLVVYDDSDRPSEIPERFSGSNSGNTATLTISRVEAGDEADYYCQVWDSSSDHVVFGGGTRLTVLGQPKAAPSVTLFPPSSEELQANKATLVCLISDFYPGAVTVAWKADSSPVKAGVETTTPSKQSNNKYAASSYLSLTPEQWKSHRSYSCQVTHEGSTVEKTVAPTECS
notes: also called P6887; Ab-Avimer-6 (P7079A)
B5: P7653 (bispecific antibody, human IgG2, lambda)
heavy: SGGSCPAYTEFLCADSDACFPSEWACDGEMDCVDGSDELHCAYHTCAPNQFACNSYDACVPAHWVCDGVLDCLDSSDETNCSAPASEPPGSLSQVQLVESGGGVVQPGRSLRLSCAASGFTFSRYDMHWVRQAPGKGLEWVAIIFYDGSNKYYADPVKGRFTISRDNSKNTLYLQMNSLRAEDTAVYYCATLAAAFDYWGQGTLVTVSSASTKGPSVFPLAPCSRSTSESTAALGCLVKDYFPEPVTVSWNSGALTSGVHTFPAVLQSSGLYSLSSVVTVPSSNFGTQTYTCNVDHKPSNTKVDKTVERKCCVECPPCPAPPVAGPSVFLFPPKPKDTLMISRTPEVTCVVVDVSHEDPEVQFNWYVDGVEVHNAKTKPREEQFNSTFRVVSVLTVVHQDWLNGKEYKCKVSNKGLPAPIEKTISKTKGQPREPQVYTLPPSREEMTKNQVSLTCLVKGFYPSDIAVEWESNGQPENNYKTTPPMLDSDGSFFLYSKLTVDKSRWQQGNVFSCSVMHEALHNHYTQKSLSLSPGK
light: YVLTQPPSVSVAPGQTARITCGGNNIGSKSVHWYQQKPGQAPVLVVYDDSDRPSEIPERFSGSNSGNTATLTISRVEAGDEADYYCQVWDSSSDHVVFGGGTRLTVLGQPKAAPSVTLFPPSSEELQANKATLVCLISDFYPGAVTVAWKADSSPVKAGVETTTPSKQSNNKYAASSYLSLTPEQWKSHRSYSCQVTHEGSTVEKTVAPTECS
notes: also called C140163
B6: P7651 (bispecific antibody, human IgG2, lambda)
heavy: QVQLVESGGGVVQPGRSLRLSCAASGFTFSRYDMHWVRQAPGKGLEWVAIIFYDGSNKYYADPVKGRFTISRDNSKNTLYLQMNSLRAEDTAVYYCATLAAAFDYWGQGTLVTVSSASTKGPSVFPLAPCSRSTSESTAALGCLVKDYFPEPVTVSWNSGALTSGVHTFPAVLQSSGLYSLSSVVTVPSSNFGTQTYTCNVDHKPSNTKVDKTVERKCCVECPPCPAPPVAGPSVFLFPPKPKDTLMISRTPEVTCVVVDVSHEDPEVQFNWYVDGVEVHNAKTKPREEQFNSTFRVVSVLTVVHQDWLNGKEYKCKVSNKGLPAPIEKTISKTKGQPREPQVYTLPPSREEMTKNQVSLTCLVKGFYPSDIAVEWESNGQPENNYKTTPPMLDSDGSFFLYSKLTVDKSRWQQGNVFSCSVMHEALHNHYTQKSLSLSPGKSSGGSCAPNQFRCNSYDKCVPAHWVCDGVLDCLDSSDETNCSAPASEPPGSLCPAYTEFLCADSDRCFPSEWRCDGEMDCVDGSDELHCAYHTSLQ
light: YVLTQPPSVSVAPGQTARITCGGNNIGSKSVHWYQQKPGQAPVLVVYDDSDRPSEIPERFSGSNSGNTATLTISRVEAGDEADYYCQVWDSSSDHVVFGGGTRLTVLGQPKAAPSVTLFPPSSEELQANKATLVCLISDFYPGAVTVAWKADSSPVKAGVETTTPSKQSNNKYAASSYLSLTPEQWKSHRSYSCQVTHEGSTVEKTVAPTECS
notes: also called C140161
B7: P7077 (bispecific antibody, human IgG2, lambda)
heavy: QVQLVESGGGVVQPGRSLRLSCAASGFTFSRYDMHWVRQAPGKGLEWVAIIFYDGSNKYYADPVKGRFTISRDNSKNTLYLQMNSLRAEDTAVYYCATLAAAFDYWGQGTLVTVSSASTKGPSVFPLAPCSRSTSESTAALGCLVKDYFPEPVTVSWNSGALTSGVHTFPAVLQSSGLYSLSSVVTVPSSNFGTQTYTCNVDHKPSNTKVDKTVERKCCVECPPCPAPPVAGPSVFLFPPKPKDTLMISRTPEVTCVVVDVSHEDPEVQFNWYVDGVEVHNAKTKPREEQFNSTFRVVSVLTVVHQDWLNGKEYKCKVSNKGLPAPIEKTISKTKGQPREPQVYTLPPSREEMTKNQVSLTCLVKGFYPSDIAVEWESNGQPENNYKTTPPMLDSDGSFFLYSKLTVDKSRWQQGNVFSCSVMHEALHNHYTQKSLSLSPGKSSGGSCGRDHFRCRSYDKCVPAHWLCDGVLDCLDSSDETYCSAPASEPPGSLCPAYTEFLCKDSDRCFPSEWRCDGEMDCVDGSDELHCAYHTSLQ
light: YVLTQPPSVSVAPGQTARITCGGNNIGSKSVHWYQQKPGQAPVLVVYDDSDRPSEIPERFSGSNSGNTATLTISRVEAGDEADYYCQVWDSSSDHVVFGGGTRLTVLGQPKAAPSVTLFPPSSEELQANKATLVCLISDFYPGAVTVAWKADSSPVKAGVETTTPSKQSNNKYAASSYLSLTPEQWKSHRSYSCQVTHEGSTVEKTVAPTECS
notes: also called P6888; Ab-Avimer-4 (P7077A)

Biological target: T1, biotin labeled human recombinant …
Assay: AlphaScreen Sclerostin/LRP-6 inhibition

Binding result, binds:
B1
B2
B3
B4
B5
B6
B7
